The target in the assay is epidermal growth factor receptor (EGF receptor kinase), rat liver (rat (endogenous in rat liver)). In words: polyethylene glycol precipitation of receptor-bound radioligand.

Take “epidermal growth factor (EGF) (from UniProt P01132 977-1029) (ligand)”: the percent of 125I-EGF in endosomes that is receptor bound (10 ug EGF injected) was 77%.
